Experimental data: US20260209344A1 (NONA BIOSCIENCES SUZHOU, published 2026)

Assays:
[1] = target: human CLDN18.2 (claudin 18.2) (human); experiment: cell-based or functional assay
[2] = target: human CLDN18.2 (claudin 18.2) (human); experiment: cell-based or functional assay; remark: listed apart in the source
[3] = target: human CLDN18.2 (claudin 18.2) (human); experiment: cell-based or functional assay; remark: listed apart in the source
[4] = target: T1, human CLDN18.2 (claudin 18.2) (human); experiment: FACS on NUGC4_D8 cells endogenously expressing CLDN18.2
T1 construct: HEK293 hCLDN18.2) or endogenously on NUGC4_D8 cells; also called hCLDN18.2; CLD18A2
Experimental: (§1) The cell density was adjusted to 10⁶ cells/ml, and 50 μl of cell suspension was added to each well of a 96-well plate. Antibodies were diluted to different concentrations with FACS buffer and 50 μl of antibody dilution was added to each well of the 96-well plate. After incubation at 4° C. for 2 hours, the plate was washed 2 times with FACS buffer. […] After incubation at 4° C. for 1 hour, the plate was washed 2 times with FACS buffer. The cells were resuspended with fixative for monitoring the fluorescence of the cells using a FACS machine (ACEA NovoCyte).

[5] = target: T1, human CLDN18.2 (claudin 18.2); experiment: FACS on HEK293 hCLDN18.2 cells, APC anti-human IgG secondary
Experimental: as §1

[6] = target: T2, human CLDN18.1 (claudin 18.1) (human, UniProt P56856 1-261); experiment: FACS on HEK293 hCLDN18.1 cells
T2 construct: whole, on cells; HEK293 hCLDN18.1); also called hCLDN18.1; CLDN18A1
Experimental: as §1

[7] = target: T1, human CLDN18.2 (claudin 18.2); experiment: FACS on NUGC4_D8 cells endogenously expressing CLDN18.2; remark: listed apart in the source
Experimental: as §1

[8] = target: T1, human CLDN18.2 (claudin 18.2); experiment: FACS on NUGC4_D8 cells
Experimental: as §1

T2 sequence (P56856 whole entry): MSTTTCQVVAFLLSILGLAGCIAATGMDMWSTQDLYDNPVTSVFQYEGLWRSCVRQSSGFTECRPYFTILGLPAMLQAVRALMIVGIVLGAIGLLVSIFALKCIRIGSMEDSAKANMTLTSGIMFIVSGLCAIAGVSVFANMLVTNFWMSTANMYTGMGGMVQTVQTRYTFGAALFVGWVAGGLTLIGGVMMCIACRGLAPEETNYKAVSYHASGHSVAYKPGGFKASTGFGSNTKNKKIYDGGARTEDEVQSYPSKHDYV

B1: IMAB362 analogue (antibody, human IgG1, kappa, V domains shown)
VH: QVQLQQPGAELVRPGASVKLSCKASGYTFTSYWINWVKQRPGQGLEWIGNIYPSDSYTNYNQKFKDKATLTVDKSSSTAYMQLSSPTSEDSAVYYCTRSWRGNSFDYWGQGTTLTVSS
VL: DIVMTQSPSSLTVTAGEKVTMSCKSSQSLLNSGNQKNYLTWYQQKPGQPPKLLIYWASTRESGVPDRFTGSGSGTDFTLTISSVQAEDLAVYYCQNDYSYPFTFGSGTKLEIKR
notes: Home-made positive control; variable region identical to IMAB362, a few amino acids differ in the constant region; also called PR000400
- EC50 (nM), ADCC with human PBMC on NUGC4_D8 cells [1]: 0.91 nM
- EC50 (nM), CDC on HEK293 hCLDN18.2 cells [2]: 1.07 nM
- EC50 (nM), endocytosis in NUGC4_D8 cells (FACS) [3]: 0.4 nM
- EC50 [4]: 20.7 nM
- EC50 [5]: 4 nM

B2: PR002725 (antibody, human IgG1, kappa, V domains shown)
VH: EVQLLESGGGLVQPGGSLRLSCAASGFTFSGYVMSWVRQAPGKGLEWVSAISGSGGSKYYADSVKGRFTISRDNSKNTLYLQMNSLRAEDTAVYYCAKGDIAVLLFDYWGQGTLVTVSS
VL: EMVMTQSPATLSVSPGERATLSCRASQSVSRNLAWFQQKPGQAPRLLIYGASTRATGIPARFSGSGSGTEFTLTISSLQSEDFAVYYCQQYNNWPLTFGGGTKVEIKR
notes: Human IgG1/kappa; also called clone 11C12-13C2
- binding result [6]: binds

B3: PR002727 (antibody, human IgG1, kappa, V domains shown)
VH: EVQLVESGGGVVQPGRSLRLSCAASGFTFSSYGMHWVRQAPGKGLEWVAVIWYDGSNKYYADSVKGRFTISRDNSKNTLYLQMNSLRAEDTAVYYCAKDGYYGSGTYYYYVMNAWGQGASVTVSS
VL: EIVMTQSPATLSVSPGERVTLSCRASQSVSSNLAWYQQKPGQAPRLLIYGASTRATGIPARFSGSGSGTEFTLTISSLQSEDFAVYYCQQYNYWPLTFGGGTKVEIKR
notes: Human IgG1/kappa; also called clone 31H3E2
- binding result [7]: binds

B4: PR003897 (antibody, human IgG1, kappa)
heavy: QVQLVESGGGLVQPGGSLRLSCATSGFTFSSYAMSWVRQAPGKGLEWVSLISGSGGSPYYADSVKGRFTISRDNSKNTLYLQMNSLRAEDTAVYYCAKGVVNWGSLFDYWGQGTLVTVSSASTKGPSVFPLAPSSKSTSGGTAALGCLVKDYFPEPVTVSWNSGALTSGVHTFPAVLQSSGLYSLSSVVTVPSSSLGTQTYICNVNHKPSNTKVDKKVEPKSCDKTHTCPPCPAPELLGGPDVFLFPPKPKDTLMISRTPEVTCVVVDVSHEDPEVQFNWYVDGVEVHNAKTKPREEQFNSTFRVVSVLTVVHQDWLNGKEYKCKVSNKALPAPEEKTISKTKGQPREPQVYTLPPSREEMTKNQVSLTCLVKGFYPSDIAVEWESNGQPENNYKTTPPMLDSDGSFFLYSKLTVDKSRWQQGNVFSCSVMHEALHNHYTQKSLSLSPGK
light: not shown
- binding result [8]: binds
- binding result [6]: binds

B5: PR003292 (antibody, human IgG1, kappa)
heavy: EVQLLESGGGLVQPGGSLRLSCAASGFTFSSFVMSWVRQAPGKGLEWVSTISGSGRSTYYADSVKGRFTISRDNSKNTLHLQMNSLRAEDTAVYYCAKDAAAAGTKFDYWGQGTLVTVSSASTKGPSVFPLAPSSKSTSGGTAALGCLVKDYFPEPVTVSWNSGALTSGVHTFPAVLQSSGLYSLSSVVTVPSSSLGTQTYICNVNHKPSNTKVDKKVEPKSCDKTHTCPPCPAPELLGGPSVFLFPPKPKDTLYITREPEVTCVVVDVSHEDPEVKFNWYVDGVEVHNAKTKPREEQYNSTYRVVSVLTVLHQDWLNGKEYKCKVSNKALPAPIEKTISKAKGQPREPQVYTLPPSREEMTKNQVSLTCLVKGFYPSDIAVEWESNGQPENNYKTTPPVLDSDGSFFLYSKLTVDKSRWQQGNVFSCSVMHEALHNHYTQKSLSLSPGK
light: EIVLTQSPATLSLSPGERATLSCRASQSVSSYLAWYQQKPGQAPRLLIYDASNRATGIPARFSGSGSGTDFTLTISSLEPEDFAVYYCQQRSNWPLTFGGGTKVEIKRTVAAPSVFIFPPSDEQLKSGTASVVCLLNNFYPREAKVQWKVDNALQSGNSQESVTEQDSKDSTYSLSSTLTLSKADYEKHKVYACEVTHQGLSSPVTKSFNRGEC
- binding result [6]: binds

B6: PR003340 (antibody, human IgG1, kappa)
heavy: EVQLLESGGGLVQPGGSLRLSCAASGFTFSSFVMSWVRQAPGKGLEWVSTISGSGRSTYYADSVKGRFTISRDNSKNTLHLQMNSLRAEDTAVYYCAKDAAAAGTKFDYWGQGTLVTVSSASTKGPSVFPLAPSSKSTSGGTAALGCLVKDYFPEPVTVSWNSGALTSGVHTFPAVLQSSGLYSLSSVVTVPSSSLGTQTYICNVNHKPSNTKVDKKVEPKSCDKTHTCPPCPAPELLGGPDVFLFPPKPKDTLMISRTPEVTCVVVDVSHEDPEVQFNWYVDGVEVHNAKTKPREEQFNSTFRVVSVLTVVHQDWLNGKEYKCKVSNKALPAPEEKTISKTKGQPREPQVYTLPPSREEMTKNQVSLTCLVKGFYPSDIAVEWESNGQPENNYKTTPPMLDSDGSFFLYSKLTVDKSRWQQGNVFSCSVMHEALHNHYTQKSLSLSPGK
light: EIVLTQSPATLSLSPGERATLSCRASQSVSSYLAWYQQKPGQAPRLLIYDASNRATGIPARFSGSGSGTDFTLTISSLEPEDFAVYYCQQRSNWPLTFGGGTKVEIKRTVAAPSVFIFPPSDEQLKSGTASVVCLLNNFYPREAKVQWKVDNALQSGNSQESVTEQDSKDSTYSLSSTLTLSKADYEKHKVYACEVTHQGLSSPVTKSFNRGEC
- binding result [6]: binds

B7: PR003293 (antibody, human IgG1, kappa)
heavy: EVQLLESGGGLVQPGGSLRLSCAASGFTFSSFVMSWVRQAPGKGLEWVSTISGSGRSTYYADSVKGRFTISRDNSKNTLHLQMNSLRAEDTAVYYCAKDAAAAGTKFDYWGQGTLVTVSSASTKGPSVFPLAPSSKSTSGGTAALGCLVKDYFPEPVTVSWNSGALTSGVHTFPAVLQSSGLYSLSSVVTVPSSSLGTQTYICNVNHKPSNTKVDKKVEPKSCDKTHTCPPCPAPELLGGPDVFLFPPKPKDTLYITREPEVTCVVVDVSHEDPEVKFNWYVDGVEVHNAKTKPREEQYNSTYRVVSVLTVLHQDWLNGKEYKCKVSNKALPAPEEKTISKAKGQPREPQVYTLPPSREEMTKNQVSLTCLVKGFYPSDIAVEWESNGQPENNYKTTPPVLDSDGSFFLYSKLTVDKSRWQQGNVFSCSVMHEALHNHYTQKSLSLSPGK
light: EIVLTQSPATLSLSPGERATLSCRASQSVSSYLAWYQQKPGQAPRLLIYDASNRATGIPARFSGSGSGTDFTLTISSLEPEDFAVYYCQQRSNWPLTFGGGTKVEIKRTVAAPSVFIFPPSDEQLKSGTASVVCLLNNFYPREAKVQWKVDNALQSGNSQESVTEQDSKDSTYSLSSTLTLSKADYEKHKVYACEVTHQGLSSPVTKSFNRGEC
- binding result [6]: binds
